The values that follow come from patent US20210322511A1 (Harvard, published 2021).

Data set [1] deals with the molecule itself. Nature of the data set: SEC, then non-reducing and reducing SDS-PAGE. In general terms: In gel filtration, larger molecules generally elute earlier.
Data set [2] concerns the molecule itself. The experiment in a line: non-reducing SDS-PAGE, disulfide-linked homodimer.
Procedure: Fractions of the last SEC were analyzed by SDS-PAGE and Coomassie-blue staining. The position of SP-B is indicated by an arrow.
The extract was subjected to chromatography on a Sepharose LH-20 column to remove phospholipids. Protein fractions were dried, dissolved in the detergent octylglucoside, and further purified by size-exclusion chromatography (SEC).

B1: recombinant human SP-BM (other)
chain: PIPLPYCWLCRALIKRIQAMIPKGALAVAVAQVCRVVPLVAGGICQCLAERYSVILLDTLLGRMLPQLVCRLVLRCSM
modifications: inter-molecular disulfide bond in the dimer
notes: also called recombinant SP-BM
As to B1, in data set [1], the binding result was “binds”.

B2: SP-BM purified from bovine lungs (other, UniProt P15781 188-266, looked up)
chain: FPIPIPYCWLCRTLIKRIQAVIPKGVLAMTVAQVCHVVPLLVGGICQCLVERYSVILLDTLLGRMLPQLVCGLVLRCSS
modifications: monomers disulfide-linked through Cys48
notes: domain: SP-BM; also called bovine SP-BM; mature SP-B
With B2, the binding result in data set [2] is reported as “binds”.
